# Changes are numbered by the printed parent chain.
# B1: PRT-176 (protein)
# chain: MANQEIRYSEVTPYHITSVWTKGVTPPTDFIKGEDVFHAPYKAHQGWYDITKTFNGGDDLLCGAATAGNMLHWWFDQNKTQIEAYLKKHPEKQKINFNGEQMFDVKEAIDTKNSQTNSELFNYFKEKAFPYLSTKHLGVFPDHVIDMFINGYRLSLTNHGPTPVKRQTKDPRGGIFDAVFGRGDQTKLLTSRHDFKEKTLNDISQLIKQELQSGKALGLSHTYANVRINHVINLWGADFDAEGNLEAIYVTDSDSNASIGMKKYFVGKNASGKVAISAKEIEDENIGAQVLGLFTLSTGKKSWEKTN
# B2: PRT-177 (protein)
# chain: B1 chain with T17K, S18T, K22D, T25K, T53A, N55D, K79S, E91D, Q185S
# B3: PRT-180 (protein)
# chain: MANQEIRYSEVTPYHVTSVWTKGVTPPANFTQGEDVFHAPYVANQGWYDITKTFNGKDDLLCGAATAGNMLHWWFDQNKDQIKRYLEEHPEKQKINFNGEQMFDVKEAIDTKNHQLDSKLFEYFKEKAFPYLSTKHLGVFPDHVIDMFINGYRLSLTNTQSTDVNEGSKDPRGGIFDAVFTRGDQSKLLTSRHDFKEKNLKEISDLIKKELTEGKALGLSHTYANVRINHVINLWGADFDSNGNLKAIYVTDSDSNASIGMKKYFVGVNSAGKVAISAKEIKEDNIGAQVLGLFTLSTGQDSWNQTN
# B4: PRT-184 (protein)
# chain: B3 chain with T159H, Q160G, S161P, D163P, N165K, N304Q, Q305K, T306L, N307S
# B5: PRT-188 (protein)
# chain: MANQEIRYSEVTPYHVTSVWTKGVTPPANFRKIVDGNIAYYAAPYVANQGWYDITKTFNGKDDLLCGAATAGNMLHWWFDQNKDQIKRYLEEHPEKQKINFNGEQMFDVKELNTYESDHGYRDKSKLFEYFKEKAFPYLSTKHLGVFPDHVIDMFINGYRLSLTNHGPTPVKEGSKDPRGGIFDAVFTRGDQSKLLTSRHDFKEKNLKEISDLIKKELTEGKALGLSHTYANVRINHVINLWGADFDSNGNLKAIYVTDSDDKKLTIGDERIGMKKYFVGVNSAGKVAISAKEIKEDNIGAQVLGLFTLSTGQDSWNQTN
# B6: PRT-186 (protein)
# chain: MANQEIRYSEVTPYHVTSVWTKGVTPPANFRKIVDGNIAYYHAPYVANQGWYDITKTFNGKDDLLCGAATAGNMLHWWFDQNKDQIKRYLEEHPEKQKINFNGEQMFDVKEAIDTKNHQLDSKLFEYFKEKAFPYLSTKHLGVFPDHVIDMFINGYRLSLTNHGPTPVKEGSKDPRGGIFDAVFTRGDQSKLLTSRHDFKEKNLKEISDLIKKELTEGKALGLSHTYANVRINHVINLWGADFDSNGNLKAIYVTDSDSNASIGMKKYFVGVNSAGKVAISAKEIKEDNIGAQVLGLFTLSTGQDSWNQTN
# B7: PRT-178 (protein)
# chain: MANQEIRYSEVTPYHVTSVWTKGVTPPANFTQGEDVFHAPYVANQGWYDITKTFNGKDDLLCGAATAGNMLHWWFDQNKDQIKRYLEEHPEKQKIIFNNQELFDLKAAIDTKNHQLDSKLFEYFKEKAFPYLSTKHLGVFPDHVIDMFINGYRLSLTNHGPTPVKEGSKDPRGGIFDAVFTRGDQSKLLTSRHDFKEKNLKEISDLIKKELTEGKALGLSHTYANVRINHVINLWGADFDSNGNLKAIYVTDSDSNASIGMKKYFVGVNSAGKVAISAKEIKEDNIGAQVLGLFTLSTGQDSWNQTN
# B8: PRT-181 (protein)
# chain: B3 chain with T159H, Q160G, S161P, D163P, N165K, F195L, E197N
# B9: PRT-182 (protein)
# chain: B3 chain with T159H, Q160G, S161P, D163P, N165K, E280K
# B10: PRT-179 (protein)
# chain: B3 chain with T134A, K135R, H136Q, T159H, Q160G, S161P, D163P, N165K
# B11: PRT-187 (protein)
# chain: MANQEIRYSEVTPYHVTSVWTKGVTPPADFTYGEDVFHAPYVANQGWYDITKTFNGKDDLLCGAATAGNMLHWWFDQNKEQIEKYLKKHPEKQKIMFGDQELLDVRKVINTKGSQTNSELFNYFRDKAFPGLSARRLGVMPDLVLDMFINGYYLNVYKTQTTDVNRTYQEKDKRGGIFDAVFTRGDQSKLLTSRHDFKEKNLKEISDLIKQELTEGKALGLSHTYANVRINHVINLWGADFDSNGNLKAIYVTDSDSNASIGMKKYFVGVNSAGKVAISAKEIKEDNIGAQVLGLFTLSTGQDIWNQTN
# B12: PRT-185 (protein)
# chain: MANQEIRYSEVTPYHVTSVWTKGVTPPANFRQGEDVFAAPYVANQGWYDITKTFNGKDDLLCGAATAGNMLHWWFDQNKDQIKRYLEEHPEKQKINFNGEQMFDVKELNTYESDHGYRDKSKLFEYFKEKAFPYLSTKHLGVFPDHVIDMFINGYRLSLTNHGPTPVKEGSKDPRGGIFDAVFTRGDQSKLLTSRHDFKEKNLKEISDLIKKELTEGKALGLSHTYANVRINHVINLWGADFDSNGNLKAIYVTDSDDKKLTIGDERIGMKKYFVGVNSAGKVAISAKEIKEDNIGAQVLGLFTLSTGQDSWNQTN
# B13: PRT-183 (protein)
# chain: MRNATEAYAKEVPHQVTSVWTKGVTPPANFTQGEDVFHAPYVANQGWYDITKTFNGKDDLLCGAATAGNMLHWWFDQNKDQIKRYLEEHPEKQKINFNGEQMFDVKEAIDTKNHQLDSKLFEYFKEKAFPYLSTKHLGVFPDHVIDMFINGYRLSLTNHGPTPVKEGSKDPRGGIFDAVFTRGDQSKLLTSRHDFKEKNLKEISDLIKKELTEGKALGLSHTYANVRINHVINLWGADFDSNGNLKAIYVTDSDSNASIGMKKYFVGVNSAGKVAISAKEIKEDNIGAQVLGLFTLSTGQDSWNQTN
# Target: pooled human IgG (human IgG1,2,3 and 4)
Protein,Enzyme Activity Endpoint Assay: Fab'2,Enzyme Activity Endpoint Assay: Fc,Enzyme Activity Endpoint Assay: IgG,Enzyme Activity Endpoint Assay: scIgG
B1,310 ng/µL,140 ng/µL,0 ng/µL,86 ng/µL
B2,67 ng/µL,105 ng/µL,131 ng/µL,426 ng/µL
B3,690 ng/µL,197 ng/µL,0 ng/µL,0 ng/µL
B4,629 ng/µL,165 ng/µL,0 ng/µL,0 ng/µL
B5,0 ng/µL,40 ng/µL,905 ng/µL,25 ng/µL
B6,646 ng/µL,218 ng/µL,9 ng/µL,0 ng/µL
B7,695 ng/µL,196 ng/µL,0 ng/µL,0 ng/µL
B8,890 ng/µL,217 ng/µL,24 ng/µL,0 ng/µL
B9,563 ng/µL,167 ng/µL,0 ng/µL,27 ng/µL
B10,697 ng/µL,187 ng/µL,0 ng/µL,0 ng/µL
B11,265 ng/µL,307 ng/µL,115 ng/µL,103 ng/µL
B12,0 ng/µL,45 ng/µL,365 ng/µL,152 ng/µL
B13,630 ng/µL,175 ng/µL,0 ng/µL,0 ng/µL

# Source: patent US20250027068
